According to US20190185537A1 (AstraZeneca / MedImmune, published 2019):
Numbered stars: 1 amine (or outer) side, 2 acyl side, 3 side chain; on linkers, the order of the positions; unused ones are H or OH. Side chains are listed from the residue outwards. Ends that are not written are not given here. * marks the point of attachment. γGlu = O=C(O)[C@H](CCC(=O)[*:2])N[*:1]; Palmitoyl = CCCCCCCCCCCCCCCC(=O)*; Ahx = NCCCCCC(=O)O

T1: human glucose-dependent insulinotropic peptide (gastric inhibitory polypeptide) receptor (human) (UniProt P48546)
T1 sequence (looked up): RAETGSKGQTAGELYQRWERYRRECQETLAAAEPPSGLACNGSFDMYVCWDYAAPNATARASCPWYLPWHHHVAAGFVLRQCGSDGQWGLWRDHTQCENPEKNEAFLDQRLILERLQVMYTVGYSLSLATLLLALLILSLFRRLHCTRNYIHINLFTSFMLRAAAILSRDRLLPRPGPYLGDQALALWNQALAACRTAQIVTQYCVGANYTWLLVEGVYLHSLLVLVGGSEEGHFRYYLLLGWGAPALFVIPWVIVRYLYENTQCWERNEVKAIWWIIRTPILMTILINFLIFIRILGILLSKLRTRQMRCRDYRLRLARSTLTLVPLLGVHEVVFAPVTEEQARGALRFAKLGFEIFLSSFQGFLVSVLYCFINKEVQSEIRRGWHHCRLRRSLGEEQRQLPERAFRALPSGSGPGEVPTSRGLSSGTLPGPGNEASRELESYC

B1: g725 (peptide)
peptide: HGEGTFTSDYSEYLDSK([Ahx-Palmitoyl])RAADFVAWLERGG-NH2
modifications: N-terminus assumed
SMILES: CCCCCCCCCCCCCCCC(=O)NCCCCCC(=O)NCCCC[C@H](NC(=O)[C@H](CO)NC(=O)[C@H](CC(=O)O)NC(=O)[C@H](CC(C)C)NC(=O)[C@H](Cc1ccc(O)cc1)NC(=O)[C@H](CCC(=O)O)NC(=O)[C@H](CO)NC(=O)[C@H](Cc1ccc(O)cc1)NC(=O)[C@H](CC(=O)O)NC(=O)[C@H](CO)NC(=O)[C@@H](NC(=O)[C@H](Cc1ccccc1)NC(=O)[C@@H](NC(=O)CNC(=O)[C@H](CCC(=O)O)NC(=O)CNC(=O)[C@@H](N)Cc1c[nH]cn1)[C@@H](C)O)[C@@H](C)O)C(=O)N[C@@H](CCCNC(=N)N)C(=O)N[C@@H](C)C(=O)N[C@@H](C)C(=O)N[C@@H](CC(=O)O)C(=O)N[C@@H](Cc1ccccc1)C(=O)N[C@H](C(=O)N[C@@H](C)C(=O)N[C@@H](Cc1c[nH]c2ccccc12)C(=O)N[C@@H](CC(C)C)C(=O)N[C@@H](CCC(=O)O)C(=O)N[C@@H](CCCNC(=N)N)C(=O)NCC(=O)NCC(N)=O)C(C)C
B2: g726 (peptide)
peptide: HGEGTFTSDYSEYLDSK([Ahx-Palmitoyl])RARDFVEWLERGG-NH2
modifications: N-terminus assumed
SMILES: CCCCCCCCCCCCCCCC(=O)NCCCCCC(=O)NCCCC[C@H](NC(=O)[C@H](CO)NC(=O)[C@H](CC(=O)O)NC(=O)[C@H](CC(C)C)NC(=O)[C@H](Cc1ccc(O)cc1)NC(=O)[C@H](CCC(=O)O)NC(=O)[C@H](CO)NC(=O)[C@H](Cc1ccc(O)cc1)NC(=O)[C@H](CC(=O)O)NC(=O)[C@H](CO)NC(=O)[C@@H](NC(=O)[C@H](Cc1ccccc1)NC(=O)[C@@H](NC(=O)CNC(=O)[C@H](CCC(=O)O)NC(=O)CNC(=O)[C@@H](N)Cc1c[nH]cn1)[C@@H](C)O)[C@@H](C)O)C(=O)N[C@@H](CCCNC(=N)N)C(=O)N[C@@H](C)C(=O)N[C@@H](CCCNC(=N)N)C(=O)N[C@@H](CC(=O)O)C(=O)N[C@@H](Cc1ccccc1)C(=O)N[C@H](C(=O)N[C@@H](CCC(=O)O)C(=O)N[C@@H](Cc1c[nH]c2ccccc12)C(=O)N[C@@H](CC(C)C)C(=O)N[C@@H](CCC(=O)O)C(=O)N[C@@H](CCCNC(=N)N)C(=O)NCC(=O)NCC(N)=O)C(C)C
B3: g326 (peptide)
peptide: HSQGTFTSDYSKYLDSRRAQDFVQWLVAGGGGGGK(Palmitoyl)-NH2
modifications: N-terminus assumed
SMILES: CCCCCCCCCCCCCCCC(=O)NCCCC[C@H](NC(=O)CNC(=O)CNC(=O)CNC(=O)CNC(=O)CNC(=O)CNC(=O)[C@H](C)NC(=O)[C@@H](NC(=O)[C@H](CC(C)C)NC(=O)[C@H](Cc1c[nH]c2ccccc12)NC(=O)[C@H](CCC(N)=O)NC(=O)[C@@H](NC(=O)[C@H](Cc1ccccc1)NC(=O)[C@H](CC(=O)O)NC(=O)[C@H](CCC(N)=O)NC(=O)[C@H](C)NC(=O)[C@H](CCCNC(=N)N)NC(=O)[C@H](CCCNC(=N)N)NC(=O)[C@H](CO)NC(=O)[C@H](CC(=O)O)NC(=O)[C@H](CC(C)C)NC(=O)[C@H](Cc1ccc(O)cc1)NC(=O)[C@H](CCCCN)NC(=O)[C@H](CO)NC(=O)[C@H](Cc1ccc(O)cc1)NC(=O)[C@H](CC(=O)O)NC(=O)[C@H](CO)NC(=O)[C@@H](NC(=O)[C@H](Cc1ccccc1)NC(=O)[C@@H](NC(=O)CNC(=O)[C@H](CCC(N)=O)NC(=O)[C@H](CO)NC(=O)[C@@H](N)Cc1c[nH]cn1)[C@@H](C)O)[C@@H](C)O)C(C)C)C(C)C)C(N)=O
B4: g322 (peptide)
peptide: HSQGTFTSDYSKYLDSRRAQDFVQWLVAGGKNNRNNIAK(Palmitoyl)-NH2
modifications: N-terminus assumed
SMILES: CCCCCCCCCCCCCCCC(=O)NCCCC[C@H](NC(=O)[C@H](C)NC(=O)[C@@H](NC(=O)[C@H](CC(N)=O)NC(=O)[C@H](CC(N)=O)NC(=O)[C@H](CCCNC(=N)N)NC(=O)[C@H](CC(N)=O)NC(=O)[C@H](CC(N)=O)NC(=O)[C@H](CCCCN)NC(=O)CNC(=O)CNC(=O)[C@H](C)NC(=O)[C@@H](NC(=O)[C@H](CC(C)C)NC(=O)[C@H](Cc1c[nH]c2ccccc12)NC(=O)[C@H](CCC(N)=O)NC(=O)[C@@H](NC(=O)[C@H](Cc1ccccc1)NC(=O)[C@H](CC(=O)O)NC(=O)[C@H](CCC(N)=O)NC(=O)[C@H](C)NC(=O)[C@H](CCCNC(=N)N)NC(=O)[C@H](CCCNC(=N)N)NC(=O)[C@H](CO)NC(=O)[C@H](CC(=O)O)NC(=O)[C@H](CC(C)C)NC(=O)[C@H](Cc1ccc(O)cc1)NC(=O)[C@H](CCCCN)NC(=O)[C@H](CO)NC(=O)[C@H](Cc1ccc(O)cc1)NC(=O)[C@H](CC(=O)O)NC(=O)[C@H](CO)NC(=O)[C@@H](NC(=O)[C@H](Cc1ccccc1)NC(=O)[C@@H](NC(=O)CNC(=O)[C@H](CCC(N)=O)NC(=O)[C@H](CO)NC(=O)[C@@H](N)Cc1c[nH]cn1)[C@@H](C)O)[C@@H](C)O)C(C)C)C(C)C)[C@@H](C)CC)C(N)=O

Tests used:
Test in all cases: cell-based or functional assay
human GLP-1 receptor = human GLP-1 receptor (human, UniProt P43220 24-463)
[1] = target: T1, human glucose-dependent insulinotropic peptide (gastric inhibitory polypeptide) receptor (human)
human glucagon receptor = human glucagon receptor (human, UniProt P47871 26-477)
Chain of human glucagon receptor (P47871 26-477): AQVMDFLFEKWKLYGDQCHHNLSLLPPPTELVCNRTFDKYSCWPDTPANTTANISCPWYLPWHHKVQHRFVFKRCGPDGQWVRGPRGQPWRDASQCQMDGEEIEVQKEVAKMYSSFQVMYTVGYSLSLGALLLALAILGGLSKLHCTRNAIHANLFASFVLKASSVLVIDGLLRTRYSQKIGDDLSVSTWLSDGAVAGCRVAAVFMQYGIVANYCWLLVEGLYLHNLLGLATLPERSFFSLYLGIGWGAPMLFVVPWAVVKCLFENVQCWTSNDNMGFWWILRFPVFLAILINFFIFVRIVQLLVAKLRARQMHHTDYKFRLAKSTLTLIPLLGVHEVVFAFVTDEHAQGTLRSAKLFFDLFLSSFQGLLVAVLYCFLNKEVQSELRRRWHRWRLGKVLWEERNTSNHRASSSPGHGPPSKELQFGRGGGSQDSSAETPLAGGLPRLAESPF

Chain of human GLP-1 receptor (P43220 24-463): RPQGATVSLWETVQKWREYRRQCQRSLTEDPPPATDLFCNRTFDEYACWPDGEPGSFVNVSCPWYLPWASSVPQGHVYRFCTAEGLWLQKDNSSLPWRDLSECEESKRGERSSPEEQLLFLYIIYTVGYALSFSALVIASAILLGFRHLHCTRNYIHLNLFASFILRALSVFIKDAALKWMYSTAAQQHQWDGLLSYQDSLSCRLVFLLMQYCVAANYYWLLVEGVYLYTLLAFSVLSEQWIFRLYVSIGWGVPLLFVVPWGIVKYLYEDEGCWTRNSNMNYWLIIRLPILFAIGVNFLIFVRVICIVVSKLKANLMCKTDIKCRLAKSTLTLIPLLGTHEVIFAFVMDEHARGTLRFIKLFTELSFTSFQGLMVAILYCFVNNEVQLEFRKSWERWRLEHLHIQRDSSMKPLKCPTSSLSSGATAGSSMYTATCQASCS

Row | Binder | cAMP EC50 (assay 1) (human GLP-1 receptor) [nM] | cAMP EC50 (assay 1) [1] [nM] | cAMP EC50 (assay 1) (human glucagon receptor) [nM]
1 | B1 | 0.0252 | 1480 | 59.9
2 | HSQGTFTSDYSEYLDSK([Ahx-Palmitoyl])RAADFVAWLERGG-NH2 (not fully specified) [g818] | 0.021 | 94 | 0.0089
3 | B2 | 0.00791 | 215 | 13.1
4 | HSQGTFTSDYSEYLDSK([Ahx-Palmitoyl])RARDFVEWLERGG-NH2 (not fully specified) [g771] | 0.0175 | 37.1 | 0.00551
5 | HSQGTFTSDYSKYLDSRAAQK([Ahx-Palmitoyl])FVQWLERGG-NH2 (not fully specified) [g806] | 0.171 | 105 | 0.0099
6 | HSQGTFTSDYSKYLDSRRAQDFVQWLVAGGSSGGSS-NH2 [g316] | 0.0314 | 3.65 | 0.0106
7 | HSQGTFTSDYSKYLDSRRAQDFVQWLVAGGGGGG-NH2 [g315] | 0.0273 | 19.7 | 0.00504
8 | B3 | 0.0247 | 12.6 | 0.00282
9 | HSQGTFTSDYSKYLDSRRAQDFVQWLVAGGGGGGK([γGlu-Palmitoyl])-NH2 [g327] | 0.0193 | 12.8 | 0.00232
10 | HSQGTFTSDYSKYLDSRRAQDFVQWLVAGGKNNRNNIAK-NH2 [g321] | 0.0272 | 6.41 | 0.0279
11 | B4 | 0.0106 | 1.72 | 0.00355
